Reference: patent publication US20240190939A1 (SHATTUCK LABS, published 2024)

T1: recombinant human PD-L2 (human, UniProt Q9BQ51 20-220)
T1 sequence (looked up): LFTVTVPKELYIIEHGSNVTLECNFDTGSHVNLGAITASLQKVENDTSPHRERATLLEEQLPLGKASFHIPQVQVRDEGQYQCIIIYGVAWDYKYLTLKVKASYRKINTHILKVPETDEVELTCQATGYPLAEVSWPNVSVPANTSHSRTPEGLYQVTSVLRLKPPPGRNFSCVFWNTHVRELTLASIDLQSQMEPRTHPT


What was measured:
[1] = molecular target: T2, mouse PVR on CHO-K1 cells (mouse); test: flow cytometry on CHO-K1 cells expressing murine PVR
T2 construct: whole, on cells; also called CHOK1/PVR; mPVR engineered cell line

recombinant CD155 = molecular target: T3, recombinant CD155; test: ELISA: CD155/PVR capture, Fc-HRP detection
T3 construct: also called CD155/PVR

[2] = molecular target: T4, human PD-L1 on CHO-K1 cells (human, UniProt Q9NZQ7 19-290); test: flow cytometry on CHO-K1 cells expressing human PD-L1
T4 construct: whole, on cells; also called hPD-L1 engineered cell line; hPD-L1 over-expressing cell line
Text: Cells were collected, washed, and stained with antibodies for the detection of the chimeric protein binding by flow cytometry.

hPDL1-Fc = molecular target: T5, hPDL1-Fc (human, UniProt Q9NZQ7 19-238); test: Dual ELISA: hPDL1-Fc capture, hLTBR-His detection, 6x His HRP (signal needs both hPDL1-Fc and hLTBR-His bound)
T5 construct: not shown: Fc, not identified
Description: For each chimeric protein ELISAs were performed under the following conditions: Heavy+Light Chain captured and detected with Fc-HRP (FIG. 13A and FIG. 13B, top left), a murine LTBR-His captured and detected with an antibody directed to murine LIGHT (FIG. 13A, top right) or human LTBR-His captured and detected with biotinylated human LIGHT (FIG. 138, top right), and mPD-L1 captured and detected with an antibody directed to mLIGHT (FIG. 13A, bottom left; “Dual ELISA”) or hPDL1-Fc captured and detected with hLTBR-His/6×His-HRP (FIG. 13A, bottom left; “Dual ELISA”).

human LTBR-His = molecular target: T6, human LTBR-His (human, UniProt P36941 31-227, limits assumed); test: ELISA: hLTBR-Fc His Tag capture, 'hLIGHT Biotinylated' detection, streptavidin HRP
T6 construct: also called hLTBR-His

recombinant human PD-L2 = molecular target: T1, recombinant human PD-L2; test: biolayer interferometry (Octet), recombinant human PD-L2

T5 sequence (Q9NZQ7 19-238 limits assumed): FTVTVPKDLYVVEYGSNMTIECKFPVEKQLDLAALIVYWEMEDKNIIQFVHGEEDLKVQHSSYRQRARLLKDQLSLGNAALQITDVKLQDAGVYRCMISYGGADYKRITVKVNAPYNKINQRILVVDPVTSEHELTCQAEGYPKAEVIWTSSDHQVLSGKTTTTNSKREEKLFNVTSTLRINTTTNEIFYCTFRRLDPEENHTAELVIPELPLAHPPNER
T6 sequence (P36941 31-227 limits assumed): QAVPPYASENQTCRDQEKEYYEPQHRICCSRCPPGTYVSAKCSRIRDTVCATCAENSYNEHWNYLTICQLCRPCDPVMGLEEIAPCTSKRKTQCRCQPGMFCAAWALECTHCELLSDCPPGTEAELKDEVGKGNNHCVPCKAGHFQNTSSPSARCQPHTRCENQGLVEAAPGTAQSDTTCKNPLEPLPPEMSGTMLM
T4 sequence (Q9NZQ7 19-290): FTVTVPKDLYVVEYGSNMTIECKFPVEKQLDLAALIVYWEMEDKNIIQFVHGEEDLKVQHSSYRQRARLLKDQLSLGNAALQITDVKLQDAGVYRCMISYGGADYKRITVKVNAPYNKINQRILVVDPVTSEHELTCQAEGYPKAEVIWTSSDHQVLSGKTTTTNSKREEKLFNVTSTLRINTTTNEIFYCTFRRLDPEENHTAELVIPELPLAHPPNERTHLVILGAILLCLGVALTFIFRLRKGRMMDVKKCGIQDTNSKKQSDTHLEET

EC50 [1] [nM]	EC50 (read off the curve) (recombinant CD155) [nM]	EC50 [2] [nM]	EC50 (read off the curve) (hPDL1-Fc) [nM]	EC50 (read off the curve) (human LTBR-His) [nM]	binding result (recombinant human PD-L2)	Binder
215	~5	–	–	–	–	murine TIGIT-Fc-LIGHT chimeric protein (Fc fusion) chain 1: TIDTKRNISAEEGGSVILQCHFSSDTAEVTQVDWKQQDQLLAIYSVDLGWHVASVFSDRVVPGPSLGLTFQSLTMNDTGEYFCTYHTYPGGIYKGRIFLKVQESSDDRNGLAQFQTAPLG chain 2: LHQRLGDIVAHLPDGGKGSWEKLIQDQRSHQANPAAHLTGANASLIGIGGPLLWETRLGLAFLRGLTYHDGALVTMEPGYYYVYSKVQLSGVGCPQGLANGLPITHGLYKRTSRYPKELELLVSRRSPCGRANSSRVWWDSSFLGGVVHLEAGEEVVVRVPGNRLVRPRDGTRSYFGAFMV
–	–	48	~10	~20	binds	human PD-1-Fc-LIGHT chimeric protein (Fc fusion, also called hPD-1-Fc-LIGHT) LDSPDRPWNPPTFSPALLVVTEGDNATFTCSFSNTSESFVLNWYRMSPSNQTDKLAAFPEDRSQPGQDCRFRVTQLPNGRDFHMSVVRARRNDSGTYLCGAISLAPKAQIKESLRAELRVTERRAEVPTAHPSPSPRPAGQFQSKYGPPCPPCPAPEFLGGPSVFLFPPKPKDQLMISRTPEVTCVVVDVSQEDPEVQFNWYVDGVEVHNAKTKPREEQFNSTYRVVSVLTVLHQDWLSGKEYKCKVSSKGLPSSIEKTISNATGQPREPQVYTLPPSQEEMTKNQVSLTCLVKGFYPSDIAVEWESNGQPENNYKTTPPVLDSDGSFFLYSRLTVDKSRWQEGNVFSCSVLHEALHNHYTQKSLSLSLGKIEGRMDLQLHWRLGEMVTRLPDGPAGSWEQLIQERRSHEVNPAAHLTGANSSLTGSGGPLLWETQLGLAFLRGLSYHDGALVVTKAGYYYIYSKVQLGGVGCPLGLASTITHGLYKRTPRYPEELELLVSQQSPCGRATSSSRVWWDSSFLGGVVHLEAGEKVVVRVLDERLVRLRDGTRSYFGAFMV
